Laboratory results taken from paper doi:10.1101/2025.07.28.667101.

Molecular target: poly-C3-GFOGMR (disulfide-linked polymer of the triple-helical peptide C3-GFOGMR)
Experiment: ELISA

affinity relative to the T221A mutant: 0.0033 fold
Substance: GST-α2I domain E318W mutant (from UniProt P17301 169-366) (domain or fragment)
